The values that follow come from article PMC10570131, “TXNL1 has dual functions as a redox active thioredoxin-like protein as well as an ATP- and redox-independent chaperone” (Redox Biology, 2023).

The data set concerns the molecule itself. Nature of the data set: non-reducing SDS-PAGE with Western blot; pure control proteins and chromatography fractions separated on SDS-PAGE without or with DTT, blotted with anti-TXNL1 or anti-Trx1. On the technique in general: A western blot detects proteins with antibodies after separation by electrophoresis.

B1: Thioredoxin (Trx1), human (natural protein, UniProt P10599-1 1-105, looked up)
chain: MVKQIESKTAFQEALDAAGDKLVVVDFSATWCGPCKMIKPFFHSLSEKYSNVIFLEVDVDDCQDVASECEVKCMPTFQFFKKGQKVGEFSGANKEKLEATINELV
notes: also called TXN; not shown: His6, N-terminal, cleaved; GFP, N-terminal, cleaved; SUMO, N-terminal, cleaved
With B1, the binding result is recorded as “binds”.

B2: Thioredoxin-like protein 1 (TXNL1), human, wildtype (natural protein, UniProt O43396 1-289, looked up)
chain: MVGVKPVGSDPDFQPELSGAGSRLAVVKFTMRGCGPCLRIAPAFSSMSNKYPQAVFLEVDVHQCQGTAATNNISATPTFLFFRNKVRIDQYQGADAVGLEEKIKQHLENDPGSNEDTDIPKGYMDLMPFINKAGCECLNESDEHGFDNCLRKDTTFLESDCDEQLLITVAFNQPVKLYSMKFQGPDNGQGPKYVKIFINLPRSMDFEEAERSEPTQALELTEDDIKEDGIVPLRYVKFQNVNSVTIFVQSNQGEEETTRISYFTFIGTPVQATNMNDFKRVVGKKGESH
notes: human TXNL1, open reading frame synthesised codon-optimised for E. coli; N-terminal Trx-fold domain (active site CGPC) and C-terminal PITH domain; also called TRP32; thioredoxin related protein of 32 kDa; not shown: His6, N-terminal, cleaved; GFP, N-terminal, cleaved; SUMO, N-terminal, cleaved
Turning to B2, the binding result was “binds”.
